Consider seven molecules from WO2001072771A2 (dated 2003).

Assay [1] concerns the target T1, soluble human insulin receptor (IR-Fc) (human, UniProt P06213 28-956).
T1 construct: extracellular domain; retains the beta-alpha-alpha-beta structure; also called sIR; sIR-Fc
The assay is described as follows: assay not given.

For another assay, the target named is T2, sIGF-1R-Fc (UniProt P08069 31-935).
T2 construct: also called slGF-1R-Fc; not shown: Fc part not described
The assay is described as follows: phage ELISA. In general terms: ELISA stands for enzyme-linked immunosorbent assay.

The target in assay [2] is human IGF-1 receptor (HIGF-1R) (human, UniProt P08069 31-1367). Briefly: displacement of 125I-IGF-1 from HIGF-1R. In general terms: Displacement assays read how much labelled ligand stays bound in the presence of the test substance.

Positions of bridges follow the written chain, without caps; N, C: chain ends. No end group written: not given here.

In assay [1], APTFYAWFNQQTGGGS (on phage; also called ~J229) [IM445 (Δ-12-3 #6)] returned an IC50 of about 2400 nM.
HPPLSELKLFLIGGGS (on phage; motif 7) [IM451 (Δ-12-3 #34)]: in the assay with sIGF-1R-Fc, the binding result is recorded as “no binding”.
As for HPTSKEIYAKLLGGGS (on phage; motif 7) [IM449 (Δ-12-3 #43)], the binding result with sIGF-1R-Fc was “no binding”.

B1: C1 peptide (peptide)
peptide: DYKDCWARPCGDAANFYDWFVQQASKK
modifications: disulfide 5-10 (inferred)
notes: synthetic; biotinylated where printed as b-C1 or D112; also called D112; b-C1
For B1, in assay [2], the binding result was “binds”.
As for HPPLEHLKAFLLGGGS (on phage; motif 7; also called ~J228) [IM452 (Δ-12-3 #23)], in the assay with sIGF-1R-Fc, the binding result was “no binding”.
For HPSLSDMRWILLGGGS (on phage; motif 7) [IM459 (Δ-12-3* #60)], in the assay with sIGF-1R-Fc, the binding result is “no binding”.
On the same count and under the same terms, under HPSTNQMLMKLFGGGS (on phage; motif 7) [IM450 (Δ-12-3 #28)] stands “no binding”.

By IC50 is commonly meant the concentration that gives 50% inhibition.
